Source: patent publication US20060204957A1, “Mta1s, a steriod hormone receptor corepressor” (priority 2002, published 2006)

Assays:
[1] = test system: ER; test: ERE promoter-reporter assay, estradiol-stimulated, MCF-7 cells; format: cell-based, human; conditions: transient expression in MCF-7 cells
Description: (§1) Transfection was performed using a Fugene-6 kit (Roche Biochemical, New Jersey) as per the manufacturer's instructions. Cells were transiently cotransfected with a reporter construct and (β-galactosidase, and assayed for luciferase activity as described.
Since MTA1 is a corepressor of ER (Mazumdar, et al., 2001, incorporated herein by reference), the ability of MTA1 cDNAs to repress the transactivating function of ER were investigated.

[2] = target: T1, ERα (Homo sapiens, UniProt P03372); test: Confocal localization of ERα in estradiol-stimulated MCF-7 cells; format: cell-based; conditions: estradiol stimulated MCF-7 cells expressing the construct
T1 construct: endogenous in cells; host or cells: MCF-7 cells transfected with T7-MTA1s or MTA1s-del
Description: The cellular localization of T7-MTA1s, and ER was determined using indirect immunofluorescence as described in Mazumdar et al., 2001, herein incorporated by reference. Cells were treated with or without anti-T7 mAb or ER Ab followed by 546-Alexa-labeled goat anti-mouse Ab or 488-Alexa.
Expression of MTA1s-del but not wild type MTA1s was accompanied by the presence of ERα in the nucleus in more than 90% of the cell expressing MTA1s-del. Together, these findings indicated a pivotal role of LRILL motif in the cytoplasmic sequestration of ERα.

[3] = test system: breast cancer cells; test: Tumorigenesis (xenograft) assay in nude mice; format: in vivo; conditions: MTA1s expressing cells implanted subcutaneously, 21 days
Description: (§2) FIGS. 11A-11E. MTA1s may stimulate aggressive phenotypes in breast cancer cells. FIG. 11A illustrates an example of MTA1s overexpression inhibiting PRE-driven but not RARE-driven transcription. FIG. […] illustrates the Growth-rate of ZR/pcDNA or ZR/MTA1s cells in monolayer culture in the presence of E2 alone or with ICI 182780 (10^−9 M for 4 days). FIG. 11C show an exemplary effect of MTA1s expression on anchorage independent growth of ZR/pcDNA and ZR/MTA1s cells grown in 10% serum in the presence or absence of ICI 182780 (10^−9 M) or 4HT (10^−8 M) for 14 days. […] FIG. 11E illustrates that MTA1s may induce tumorigenesis of breast cancer cells. 5×10^6 cells were subcutaneously inoculated in the athymic nude mice (n=10), and tumor volumes at day 21 were recorded.
(§3) Soft agar colony growth assays were performed as described in Mazumdar et al., 2001, herein incorporated by reference. For xenografts studies, 5×10^6 cells were implanted subcutaneously into mammary fat-pad of nude mice and allowed to grow for 21 days and tumor size was measured, as described in Mandal et al., 2001, herein incorporated by reference.

[4] = test system: progesterone responsive element (PRE) transcription; test: PRE reporter assay, progesterone-stimulated, MCF-7 cells; format: cell-based, human; conditions: transient expression
Description: (§4) FIGS. 6A-6B. Typical transcriptional repression by MTA1s. FIG. 6A illustrates an example of repression of dexamethasone (10^−9 M)-mediated stimulation of GRE-CAT activity in MCF-7 cells by MTA1s. FIG. 6B illustrates the exemplary repression of progesterone (10^−9 M)-mediated stimulation of PRE-luciferase activity in MCF-7 cells by MTA1s. Cells were cotransfected with β-galactosidase to assess transfection efficiency, and normalized results are presented here.
as §1

[5] = test system: ZR-75R or MCF-7 cells; test: Soft-agar anchorage-independent growth assay; format: cell-based, human; conditions: stable expression in ZR-75R or MCF-7 cells
Description: as §2, §3

[6] = test system: glucocortocoid responsive element (GRE) transcription; test: GRE reporter assay, dexamethasone-stimulated, MCF-7 cells; format: cell-based, human; conditions: transient expression
Description: as §4, §1

[7] = test system: ER; test: GST pull-down assay; format: binding; conditions: in vitro translated protein, GST fusion
Description: Incubating equal amounts of GST […] GST-AF2 or GST-AF 1 proteins immobilized to glutathione-sepharose beads with in vitro translated ^35S-labelled MTA1s, protein as described.
Since MTA1s lacked the nuclear signal sequence, the subcellular localization and function of MTA1s was examined. […] The role of MTA1s, in breast cancer cells, was investigated by generating stable clones of ZR-75R cells expressing T7-MTA1s (FIG. 3B). Subcellular fractionation of the ZR-75R cells expressing MTA1s confirmed that T7-MTA1s was in the cytoplasm. To assess the purity of the fractions, immunoblotting with antibodies against the nuclear corepressor PELP1 (Vadlamudi, et al., 2000) and cytosolic paxillin (FIG. 3C) were used. To understand the impact of MTA1s on the status of ER, immunostaining with an anti-ER mAb were used on MCF-7 cells that were transfected with the T7-MTA1s. The expression of T7-MTA1s was accompanied by a significant reduction in the nuclear ER immunoreactivity (FIG. 3D), raising the possibility that MTA1s regulates ER. To confirm the interaction between the MTA1s and endogenous ER, immunoprecipitation of T7-MTA1s with an anti-T7 mAb was used. […] To investigate whether the association between MTA1s and ER was direct or mediated by other proteins, the ability of in vitro-translated ER protein to bind with GST-MTA1s was investigated. […]
Target sequence in this assay (P03372 311-595 limits assumed): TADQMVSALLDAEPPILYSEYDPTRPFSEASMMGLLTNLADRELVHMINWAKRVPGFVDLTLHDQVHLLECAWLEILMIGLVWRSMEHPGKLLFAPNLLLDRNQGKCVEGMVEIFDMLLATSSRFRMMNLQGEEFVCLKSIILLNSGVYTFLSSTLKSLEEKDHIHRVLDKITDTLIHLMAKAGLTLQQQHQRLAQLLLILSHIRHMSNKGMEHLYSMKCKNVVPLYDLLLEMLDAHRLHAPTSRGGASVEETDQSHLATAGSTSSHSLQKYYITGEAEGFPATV

[8] = test system: pS2, c-Myc and cathepsin-D; test: Expression of ER-target genes in ZR-75R cells; format: cell-based, human; conditions: ZR-75R/MTA1s cells
Description: FIGS. 5A-5F. MTA1s may impair genomic responses and upregulates the MAP kinase pathway in ZR75R breast cancer cells. […] FIG. 5B illustrates an example of the status of E2 (10^−9 M for 16 h)-induced stimulation of pS2 mRNA. […] Treatment, 5 min. with E2 (10^−9 M) or ICI 182780 (10^−8 M) or both. […] Treatment, 5 min with E2 (10^−9 M) or ICI 182780 (10^−8 M) or both. Relative levels of p42/44Phos are shown underneath.

T1 sequence (P03372 whole entry): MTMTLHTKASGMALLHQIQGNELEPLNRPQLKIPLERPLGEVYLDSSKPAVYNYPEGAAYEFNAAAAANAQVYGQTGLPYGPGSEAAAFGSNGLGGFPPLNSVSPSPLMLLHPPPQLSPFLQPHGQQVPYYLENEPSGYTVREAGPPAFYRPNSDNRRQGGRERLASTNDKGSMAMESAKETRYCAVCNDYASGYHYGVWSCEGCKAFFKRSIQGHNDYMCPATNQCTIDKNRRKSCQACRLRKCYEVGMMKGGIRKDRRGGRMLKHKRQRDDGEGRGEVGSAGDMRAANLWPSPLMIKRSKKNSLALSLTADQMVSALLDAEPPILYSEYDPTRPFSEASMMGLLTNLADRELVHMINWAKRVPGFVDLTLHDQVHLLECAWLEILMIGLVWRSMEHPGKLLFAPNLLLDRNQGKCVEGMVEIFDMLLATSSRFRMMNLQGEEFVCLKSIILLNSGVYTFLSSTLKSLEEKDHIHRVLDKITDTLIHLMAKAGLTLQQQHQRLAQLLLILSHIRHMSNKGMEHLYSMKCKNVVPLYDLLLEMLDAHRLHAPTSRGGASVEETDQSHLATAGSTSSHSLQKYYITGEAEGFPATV

B1: MTA1s-stop: MTA1s mutant made by adding a stop codon and deleting the entire 33 amino acids (protein)
chain: MAANMYRVGDYVYFENSSSNPYLIRRIEELNKTANGNVEAKVVCFYRRRDISSTLIALADKHATLSVCYKAGPGADNGEEGEIEEEMENPEMVDLPEKLKHQLRHRELFLSRQLESLPATHIRGKCSVTLLNETESLKSYLEREDFFFYSLVYDPQQKTLLADKGEIRVGNRYQADITDLLKEGEEDGRDQSRLETQVWEAHNPLTDKQIDQFLVVARSVGTFARALDCSSSVRQPSLHMSAAAASRDITLFHAMDTLHKNIYDISKAISALVPQGGPVLCRDEMEEWSASEANLFEEALEKYGKDFTDIQQDFLPWKSLTSIIEYYYMWKTTDRYVQQKRLKAAEAESKLKQVYIPNYNKPNPNQISVNNVKAGVVNGTGAPGQSPGAGRACESCY
**Q.** With B1 as the molecule, how does the “repression of estradiol's ability to stimulate ERE transcription” value (“repression of estradiol's ability” below) [1] read?
**A.** Its value is “did not result in a significant suppression”.

B2: MTA1s-del: MTA1s mutant made by deleting the LRILL motif (protein)
chain: MAANMYRVGDYVYFENSSSNPYLIRRIEELNKTANGNVEAKVVCFYRRRDISSTLIALADKHATLSVCYKAGPGADNGEEGEIEEEMENPEMVDLPEKLKHQLRHRELFLSRQLESLPATHIRGKCSVTLLNETESLKSYLEREDFFFYSLVYDPQQKTLLADKGEIRVGNRYQADITDLLKEGEEDGRDQSRLETQVWEAHNPLTDKQIDQFLVVARSVGTFARALDCSSSVRQPSLHMSAAAASRDITLFHAMDTLHKNIYDISKAISALVPQGGPVLCRDEMEEWSASEANLFEEALEKYGKDFTDIQQDFLPWKSLTSIIEYYYMWKTTDRYVQQKRLKAAEAESKLKQVYIPNYNKPNPNQISVNNVKAGVVNGTGAPGQSPGAGRACESCYMSSDILEEIWWLENANPVRWREARTKPQ
**Q.** B2 was tested. Which “repression of estradiol's ability” value [1] did it give?
**A.** The value was “did not result in a significant suppression”.

**Q.** What about the “cells with ERα present in the nucleus” value [2] of the same molecule?
**A.** The value was “more than 90%”.

B3: full-length MTA1: 715 amino acid metastasis-associated protein, corepressor of nuclear Estrogen Receptor α (protein, UniProt Q13330 1-715, looked up)
chain: MAANMYRVGDYVYFENSSSNPYLIRRIEELNKTANGNVEAKVVCFYRRRDISSTLIALADKHATLSVCYKAGPGADNGEEGEIEEEMENPEMVDLPEKLKHQLRHRELFLSRQLESLPATHIRGKCSVTLLNETESLKSYLEREDFFFYSLVYDPQQKTLLADKGEIRVGNRYQADITDLLKEGEEDGRDQSRLETQVWEAHNPLTDKQIDQFLVVARSVGTFARALDCSSSVRQPSLHMSAAAASRDITLFHAMDTLHKNIYDISKAISALVPQGGPVLCRDEMEEWSASEANLFEEALEKYGKDFTDIQQDFLPWKSLTSIIEYYYMWKTTDRYVQQKRLKAAEAESKLKQVYIPNYNKPNPNQISVNNVKAGVVNGTGAPGQSPGAGRACESCYTTQSYQWYSWGPPNMQCRLCASCWTYWKKYGGLKMPTRLDGERPGPNRSNMSPHGLPARSSGSPKFAMKTRQAFYLHTTKLTRIARRLCREILRPWHAARHPYLPINSAAIKAECTARLPEASQSPLVLKQAVRKPLEAVLRYLETHPRPPKPDPVKSVSSVLSSLTPAKVAPVINNGSPTILGKRSYEQHNGVDGNMKKRLLMPSRGLANHGQARHMGPSRNLLLNGKSYPTKVRLIRGGSLPPVKRRRMNWIDAPDDVFYMATEETRKIRKLLSSSETKRAARRPYKPIALRQSQALPPRPPPPAPVNDEPIVIED
modifications: full-length
notes: 715 amino acid metastasis-associated protein, corepressor of nuclear Estrogen Receptor α
**Q.** How did the “repression of estradiol's ability” value [1] turn out when B3 was run?
**A.** Its value is “effectively blocked”.

B4: MTA1s: novel 430 amino acid protein from an alternatively spliced MTA1 transcript, with unique 33 amino acid C-terminus (SEQ ID NO:2) (protein, listed as Homo sapiens)
chain: MAANMYRVGDYVYFENSSSNPYLIRRIEELNKTANGNVEAKVVCFYRRRDISSTLIALADKHATLSVCYKAGPGADNGEEGEIEEEMENPEMVDLPEKLKHQLRHRELFLSRQLESLPATHIRGKCSVTLLNETESLKSYLEREDFFFYSLVYDPQQKTLLADKGEIRVGNRYQADITDLLKEGEEDGRDQSRLETQVWEAHNPLTDKQIDQFLVVARSVGTFARALDCSSSVRQPSLHMSAAAASRDITLFHAMDTLHKNIYDISKAISALVPQGGPVLCRDEMEEWSASEANLFEEALEKYGKDFTDIQQDFLPWKSLTSIIEYYYMWKTTDRYVQQKRLKAAEAESKLKQVYIPNYNKPNPNQISVNNVKAGVVNGTGAPGQSPGAGRACESCYMSSLRILLDILEEIWWLENANPVRWREARTKPQ
**Q.** With B4 as the molecule, how does the “tumorigenicity in nude mice” value [3] read?
**A.** The value was “more tumorigenic”.

**Q.** And the “repression of PRE transcription stimulated by progesterone” value [4]?
**A.** The value was “blocked the stimulation”.

**Q.** What about the “anchorage-independent growth in soft agar” value [5] of the same molecule?
**A.** Its value is “significantly enhanced”.

**Q.** What about the “repression of GRE transcription stimulated by dexamethasone” value [6] of the same molecule?
**A.** The value was “blocked the stimulation”.

**Q.** What about the “binding to ER in GST pull-down” value [7] of the same molecule?
**A.** The value was “interacted with the GST-ER but not with GST alone”.

**Q.** And the “repression of estradiol's ability” value [1]?
**A.** The value was “effectively blocked”.

**Q.** What about the “expression of ER-target genes pS2, c-Myc and cathepsin-D” value [8] of the same molecule?
**A.** The value was “significantly reduced expression”.
